Substitutions are numbered along the chain they refer to. Entries after “also recorded” stand apart in the source; their conditions may differ.

The target in test [1] is T1, human DLL4-His bound to plate-coated Notch 1-Fc (Homo sapiens, UniProt Q9NR61).
T1 construct: The DLL4 antigen protein comprises 27th to 522nd amino acid residues of DLL4; purchased R&D System 1506-D4/CF
As to the kind of experiment: ELISA-based solution competition (neutralization) test, DLL4 binding to hNotch-1-hFc. To be noted: antibody concentration of 0.1 μM. Here is the method: The neutralization effects of the anti-DLL4 antibodies were evaluated using an ELISA-based solution competition test.
Each well of a 96-well microtiter plate (Nunc-Immuno Plate, NUNC, Rochester, N.Y.) was coated with 100 μl of 500 ng/ml of hNotch-1-hFc protein (R&D Systems) (diluted in PBS) at 4° C. overnight, and non-specific binding sites were blocked with BSA for 2 hours.
The anti-DLL4 antibody (purified protein) on the 96-well microtiter plate was premixed with serial dilutions of antigen protein (DLL4 antigen, 600 ng/m) at an antibody concentration ranging from 0 nM to 140 nM. The antigen/antibody mixture was incubated for 30 minutes, and then transferred to a microtiter plate precoated with the DLL4 receptor hNotch-1 protein (50 ng/well) in order to measure free […]. Then, the plate was incubated for 2 hours and washed five times with 0.05% tween 20-containing PBS. In order to detect the DLL4 antigen bound to the plate, an HRP-conjugated His […] polyclonal antibody reagent (Roche applied science) was diluted at a ratio of 1:500, and the washed microtiter plate was treated with the diluted antibody reagent, and then allowed to react at 37° C. for 1 hour. Then, color development was performed using a colorimetric substrate (3,3′,5,5′-tetramethylbenzidine; Sigma-Aldrich Co.), and the enzymatic reaction was stopped using 0.5 mol/l of sulfuric acid. The amounts of antibodies required to achieve a 50% decrease in human DLL4-His bound to plate-coated Notch 1-Fc (IC50) are shown in Table 1 below.
For orientation: ELISA stands for enzyme-linked immunosorbent assay.

Test [2] has as its system human umbilical vein endothelial cell (HUVEC). As to the kind of experiment: HUVEC proliferation assay on rhDLL4-coated plate (CCK-8). It is filed as cell-based. To be noted: rhDLL4-coated plate 1 μg/ml; MLCK-2 mAb 20 μg/ml; 96 hours. Here is the method: In order to investigate the effect of DLL4-binding antibodies on proliferation of human umbilical vein endothelial cell (HUVEC), a representative anti-DLL4 antibody, MLCK-2 antibody, was analyzed for the effect thereof on proliferation of HUVEC.
To be specific, human umbilical vein endothelial cell (HUVEC) was purchased from Lonza to be used in this experiment. T-flask (Nunc) was coated with PBS buffer (Gibco) added with 1% gelatin (Sigma) at a room temperature for 4 to 6 hours, washed with PBS, and then it was used for culturing HUVECs. EBM-2 (Lonza) supplemented with EGM-2 Single Quot (Lonza) was used as a culture medium, density of a cell culture was remained below 80%, and the cells were cultured at 37° C. in a 5% CO2 incubator. The cells before passage 6 were used for this experiment. HUVEC proliferation assay was done by following process. First, to prepare the hDLL4-coated plate, one day before conducting the experiment, rhDLL4 (R&D systems) was diluted in a carbonate buffer to a final concentration of 1 μg/ml in a 96-well plate (BD), where 100 μl of the diluted rhDLL4 was inoculated per each well, and the plate was incubated at 4° C. overnight. […] Using the apparatus SpectraMax 190 (Molecular Devices), the absorption of the sample at 450 nm-650 nm was measured and the levels of cell proliferation were compared among different test groups.

The test system of test [3] is DLL4/Notch signaling pathway. As to the kind of experiment: Western blotting of NICD in HUVECs on rhDLL4-coated plate (DLL4/Notch signaling pathway). The following applies: 20 μg/ml MLCK-2 mAb. Format: cell-based, human. From the text:
In Notch signaling, when DLL4 binds to a Notch receptor, this causes a […] change in the Notch receptor leading to the cleavage thereof, and then an intracellular domain of Notch (NICD) enters the nucleus and mediates a Notch signaling. In this regard, it was confirmed whether the anti-DLL4 antibody of the present invention could inhibit the binding between DLL4 and a Notch receptor, thereby disrupting the Notch signaling through monitoring the inhibition of a Notch receptor cleavage as below.
To be specific, in order to determine the inhibitory activity of the DLL4-binding antibodies against the DLL4/Notch signaling pathway, the inhibition of signaling pathway in HUVECs was analyzed in the present experiment. One day before conducting experiment, a recombinant human DLL4 (rhDLL4, R&D systems) was diluted with carbonate buffer to a final concentration of 1 μg/ml, and then 1 ml/well of the diluted rhDLL4 was added to a 6-well plate (BD) and incubated at 4° C. overnight. […]
Subsequently, the plate was put on ice and HUVECs were collected from each well using a scraper and put into a 1.5 ml tube and stored in ice. […] For SDS-PAGE analysis, the supernatant was added to 5×SDS sample buffer and boiled at 100° c. for 10 minutes analyzed by SDS-PAGE. […]
In general terms: In western blotting, separated proteins are transferred to a membrane and probed.

T1 sequence (Q9NR61 27-522): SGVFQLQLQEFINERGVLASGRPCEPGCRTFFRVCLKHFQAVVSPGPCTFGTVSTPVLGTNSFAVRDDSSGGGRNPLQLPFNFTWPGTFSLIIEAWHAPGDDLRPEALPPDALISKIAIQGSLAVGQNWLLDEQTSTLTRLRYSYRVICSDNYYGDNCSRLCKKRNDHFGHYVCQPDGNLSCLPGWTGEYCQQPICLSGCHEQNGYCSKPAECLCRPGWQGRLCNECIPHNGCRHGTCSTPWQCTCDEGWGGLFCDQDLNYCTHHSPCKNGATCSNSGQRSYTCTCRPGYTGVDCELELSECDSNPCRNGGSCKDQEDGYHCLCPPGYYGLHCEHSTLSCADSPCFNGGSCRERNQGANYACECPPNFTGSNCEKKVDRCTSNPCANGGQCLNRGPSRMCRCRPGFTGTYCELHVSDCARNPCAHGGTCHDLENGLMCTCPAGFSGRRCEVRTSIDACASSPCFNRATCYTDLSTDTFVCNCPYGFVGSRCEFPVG

B1: MLCK-2: human monoclonal anti-DLL4 antibody; heavy chain variable region SEQ ID NO: 5, light chain variable region SEQ ID NO: 19 (antibody, V domains shown)
VH: EVQLLESGGGLVQPGGSLRLSCAASGFTFSDYAMSWVRQAPGKGLEWVSWIYSGSGNKYYADSVKGRFTISRDNSKNTLYLQMNSLRAEDTAVYYCARADWPFDYWGQGTLVTVSS
VL: QSVLTQPPSASGTPGQRVTISCTGSSSNIGSNDVTWYQQLPGTAPKLLIYADSKRPSGVPDRFSGSKSGTSASLAISGLRSEDEADYYCGTWDYSLSAYVFGGGTKLTVL
modifications: a heavy chain variable region of MLCK-2; a light chain variable region of MLCK-2
Consider B1, for which the “blocking of the bindings between DLL4 and human Notch 1 receptor” value (“blocking” for short) in test [1] is listed as “blocked most of the bindings”. Also, the “effect on DLL4-mediated inhibition of HUVEC proliferation” value in test [2] is recorded as “blocks the DLL4-mediated suppression of HUVEC proliferation”. Moreover, the “level of NICD / Notch signaling (western blotting)” value in test [3] is “reduced the level of NICD; also recorded: inhibits Notch signaling”.

B2: MLCK-1: human monoclonal anti-DLL4 antibody; heavy chain variable region SEQ ID NO: 1, light chain variable region SEQ ID NO: 15 (antibody, V domains shown)
VH: B1 VH with G54D, S55D, W101P
VL: B1 VL with D33N, T35S, A51S, S53N, K54N, G90A, Y94S, S97N, A98G
modifications: a heavy chain variable region of MLCK-1; a light chain variable region of MLCK-1
As to B2, in test [1], the “blocking” value is listed as “blocked most of the bindings”.

B3: MLCK-4: human monoclonal anti-DLL4 antibody; heavy chain variable region SEQ ID NO: 11, light chain variable region SEQ ID NO: 27 (antibody, V domains shown)
VH: EVQLLESGGGLVQPGGSLRLSCAASGFTFSNYAMSWVRQAPGKGLEWVSWIYHGGGDTYYADSVKGRFTISRDNSKNTLYLQMNSLRAEDTAVYYCARGPNYTFGKPFDYWGQGTLVTVSS
VL: B1 VL with T23R, S26P, S31N, D33T, T35Y, A51S, K54Q, T91S
modifications: a heavy chain variable region of MLCK-4; a light chain variable region of MLCK-4
Turning to B3, in test [1], the “blocking” value is given as “blocked most of the bindings”.

B4: MLCK-3: human monoclonal anti-DLL4 antibody; heavy chain variable region SEQ ID NO: 8, light chain variable region SEQ ID NO: 23 (antibody, V domains shown)
VH: B1 VH with S53Y, G54D, N57S, W101L
VL: B1 VL with T23S, S31N, D33A, A51S, S53N, K54H, Y94A, A98G
modifications: a heavy chain variable region of MLCK-3; a light chain variable region of MLCK-3
With B4, the “blocking” value in test [1] was “blocked most of the bindings”.

The record behind these values is patent US9598483B2, “Monoclonal antibody binding specifically to DLL4 and use thereof” (ABLBIO, priority 2012, dated 2017).
